Patent publication US20040170601A1, “Method of improving the growth performance of an animal” (priority 2001, published 2004)
“Also recorded” adds a separate entry of the source.

How the values were obtained:
Assay type in all cases: in vivo, pigs
eosinophils [1] = assay: Example 3: mode of administration of IL-5 (protein or DNA) on eosinophils; conditions: six times over 2 weeks
Method: This trial compared the delivery of IL-5 as recombinant protein or by DNA using different routes of administration. Each treatment was administered six times over 2 weeks (Days 0, 1, 3, 6, 8, 10).
6 pigs/treatment group. Blood haematology measured.
The experiment was conducted using medicated feed Barastoc EziWean 150 then Bunge Grolean CREEP ad libitum in an experimental environment (PC2 containment facilities).
Blood total and differential counts were performed using a CellDyn 3700 haematology machine.

eosinophils [2] = assay: Example 11: IL-5 and IL-3 on eosinophil production
Excerpt: The aim of this example was to determine if the effects of IL-3 and IL-5 act synergistically to increase eosinophil levels and antibody production.
As IL-3 stimulates the proliferation of pre-active B cells prior to the effects of IL-5, it was believed that administration of both IL-3 and IL-5 would have a greater impact on eosinophil production than the administration of either cytokine alone. An experiment was undertaken using pigs raised under clean PC2 conditions with raised floors. There were 5 treatments with 6 pigs per treatment. Pigs were 5-6 weeks of age. The animals were injected intramuscularly on days 0, 3, 7 and 10 of the experiment with either recombinant cytokines or saline. The treatments include IL-5 and IL-3 alone and given either together at the same time at different sites or to the same animal but with IL-3 being administered one week before IL-5. The treatments were as follows:
Group 3—100 μg IL-3+100 μg IL-5 (separate sites)
The pigs were bled 4 times per week for the first 2 weeks and once per week for the following 2 weeks and haematology measured using a CellDyn machine. Sera were collected also each week and tested for antibody levels.

[3] = tested on: Brachyspira (Serpulina) hyodysenteriae; assay: Example 7: swine dysentery challenge, IL-5 prophylactic; design: reduction in the number of spirochaetes compared to saline treated pigs: concentration or dose not given beside the values
Excerpt: One aim of this example was to determine whether IL-5 could improve the health of pigs infected with an enteric inflammatory pathogen causing swine dysentery, Brachyspira (Serpulina) hyodysenteriae. A further aim was to determine whether IL-5 could improve the growth rate of pigs under conditions of challenge with swine dysentery.
Male pigs with a mean starting weight of 6.5 kg, were allocated to treatment groups consisting of eight pigs (Table 6). Pigs were housed in group pens, with each pen containing a replicate from each of the treatment groups. One group of 8 pigs was housed in a separate room and left uninfected to act as untreated controls. Pigs were provided with pelleted feed and water ad libitum.
Prior to swine dysentery challenge, pigs were treated with recombinant IL-5 or saline, as described in Table 6. Cytokines and the antibiotic, Lincomycin, were delivered by intramuscular injection at intervals outlined in Table 7. Pigs were infected with Brachyspira hyodysenteriae at day 0, day 1 and day 2, given as an oral bolus of 120 ml of spirochaete culture in log phase of growth, containing approximately […].
Faecal swabs and blood samples were taken from each pig at intervals described in Table 7. Faecal swabs were cultured for the presence of spirochaetes. Blood samples were assayed for immunological parameters as described in example 1 above. Pigs were weighed at weekly intervals throughout the experiment, which was terminated by euthanasia on days 19 and 20 after the initial challenge. At post mortem swabs from areas of the hindgut were cultured for the presence of spirochaetes, and the gross pathological condition of the gastro-intestinal tissue noted.

[4] = tested on: H. parasuis, APP and Swine dysentry; assay: Example 4: deaths and production loss from infectious disease; conditions: for number of deaths during trial: 20 per group; for deaths (autopsy report summary) / production loss (deaths from infectious disease or weight loss): weaner period
Method: This trial evaluated the capacity of IL-5 to improve growth performance and immunity of pigs by comparing the growth rate and health of weaner pigs (28 day old weaners is Day 0 of the trial and the weaner period continued for 42 days) through to the finisher stage (Days 93 to 113) and slaughter (133 days after commencing the trial). The pigs were administered recombinant porcine cytokine, IL-5, and saline was used as a control, with and without standard weaner medicated water and feed in a commercial piggery environment.
40 pigs per treatment mixed in-groups of 20, with 4 replicates containing standard medicated water and feed and 4 replicates without medicated feed or water.
These are possibly a reflection of resistance to infections as all pigs were subjected to a severe exposure of pathogens (deaths occurred from H. parasuis “Glasser's”, APP and Swine dysentry).
The production loss in terms of deaths from infectious disease or weight loss as measured by weekly weighing is shown in FIG. 13. No deaths occurred in the IL-5 medicated group (FIG. 13), a factor that influenced the positive effect of IL-5 on increasing total group weight as described above (FIG. 10). The majority of deaths also included prior weight loss, but were recorded as deaths only. The antibiotic medicated groups had reduced numbers of pigs that lost weight during 1 or more weeks during the weaner period compared to the un-medicated groups. The first week after weaning was where the majority (>80%) of pigs lost weight.

B1: interleukin 5 (protein, UniProt Q9MYM5 22-134, looked up)
Interleukin-5: VENTMNRLVAETLTLLSIHRTLLIGDGNLMISTPVHTNHQLCIEEVFQGIDTLKNQTARGDAVEKLFQNLSLIKEYIDRQKKNCGGERWRVTQFLDYLQVFLGVINTEWTMES
notes: recombinant porcine IL-5 protein expressed in E. coli; + / − = with / without antibiotic medicated feed and water, +p = weaner period only
- circulating eosinophil numbers (percentage of WBC) (eosinophils [1]; 100 μg rec.IL-5 IM hind leg, listed as Recombinant IL-5): elevated circulating eosinophil numbers
- circulating eosinophil numbers (percentage of WBC) (eosinophils [1]; 100 μg rec.IL-5 IM hind leg, listed as recombinant IL-5): increase in the duration and level of eosinophils in blood
- circulating eosinophil numbers (percentage of WBC) (eosinophils [1]; 100 μg rec.IL-5 intranasal spray): slight increases on eosinophil numbers compared to the DNA control but not statistically significant
- eosinophil percentage of WBC relative to the original value (eosinophils [2]; after 4 injections): approximately 10 times
- eosinophils as a percent of white blood cells (eosinophils [2]; single cytokine 100 μg IM days 0, 3, 7, 10): significant increase in eosinophil levels; also recorded: dramatically increased circulating eosinophil cells
- spirochaete shedding in faeces (faecal culture) ([3]; after challenge): decreasing levels of spirochaete shedding by day 14 after challenge
- reduction in the number of spirochaetes compared to saline treated pigs ([3]; anterior colon, post mortem): 63%
- reduction in the number of spirochaetes compared to saline treated pigs ([3]; caecum, post mortem): 60%
- reduction in the number of spirochaetes compared to saline treated pigs ([3]; faecal, post mortem): 68%
- number of spirochaetes cultured from the hindgut at post mortem ([3]; pig, in vivo): reduced the number of spirochaetes residing in the gut compared to saline controls; also recorded: comparable to that shown by the Lincocin antibiotic
- incidence of clinical signs in faeces (of 8 pigs) ([3]; post mortem): 3 pigs
- reduction in the number of spirochaetes compared to saline treated pigs ([3]; posterior colon, post mortem): 47%
- number of deaths during trial ([4]; Final (Day 133), medicated): 0
- number of deaths during trial ([4]; Final (Day 133), un-medicated): 3
- number of deaths during trial ([4]; Weaner (Day 42), medicated): 0
- number of deaths during trial ([4]; Weaner (Day 42), un-medicated): 2
- condition and health of pigs ([4]; medicated): excellent condition and health compared to other groups
- deaths (autopsy report summary) ([4]; medicated): No deaths or intervention
- production loss (deaths from infectious disease or weight loss) ([4]; medicated): no pig from the medicated IL-5 treatment group lost weight or died from infectious disease
- production loss (deaths from infectious disease or weight loss) ([4]; un-medicated): reduced production loss
- deaths (autopsy report summary) ([4]; unmedicated): 2x H. parasuis
